From patent US20150104459A1

What was measured:
Conditions in all cases: remark: other sources report otherwise
[1] = target: recombinant soluble homotrimeric HA, A/duck/Yangzhou/02/2005 (H8N4) (influenza A virus A/duck/Yangzhou/02/2005 (H8N4)); experiment: microarray, trimeric HA, transfection supernatant
[2] = target: recombinant soluble homotrimeric HA, A/Netherlands/219/03 (H7N7) (influenza A virus A/Netherlands/219/03 (H7N7)); experiment: microarray, trimeric HA, transfection supernatant
[3] = target: recombinant soluble homotrimeric HA, A/chicken/Vietnam/NCVD-016/08 (H5N1) (influenza A virus A/chicken/Vietnam/NCVD-016/2008 (H5N1)); experiment: microarray, trimeric HA, transfection supernatant
[4] = target: recombinant homotrimeric HA, A/swine/Ontario/01911-2/99 H4N6 (Influenza A virus A/swine/Ontario/01911-2/99 (H4N6)); experiment: trimeric HA microarray; transfection supernatant set 5
[5] = target: T1, recombinant homotrimeric HA, A/Solomon Islands/3/06 H1N1 (Influenza A virus A/Solomon Islands/3/06 (H1N1)); experiment: as above
[6] = target: recombinant soluble homotrimeric HA of A/swine/Ontario/01911-2/99 (H4N6) (Influenza A virus A/Swine/Ontario/01911-2/99 (H4N6)); experiment: HA microarray, BCC supernatant
[7] = target: recombinant soluble homotrimeric HA of A/chicken/Vietnam/NCVD-016/08 (H5N1) (Influenza A virus A/chicken/Vietnam/NCVD-016/2008 (H5N1)); experiment: HA microarray, BCC supernatant
[8] = target: recombinant soluble homotrimeric HA of A/Japan/305/57 (H2N2) (Influenza A virus A/Japan/305/1957 (H2N2)); experiment: HA microarray, BCC supernatant
[9] = target: recombinant soluble homotrimeric HA of A/Netherlands/219/03 (H7N7) (Influenza A virus A/Netherlands/219/03 (H7N7)); experiment: HA microarray, BCC supernatant
[10] = target: recombinant soluble homotrimeric HA of A/Wisconsin/67/05 (H3N2) (Influenza A virus A/Wisconsin/67/2005 (H3N2)); experiment: HA microarray, BCC supernatant
[11] = target: recombinant homotrimeric HA, A/Indonesia/5/05 H5N1 (Influenza A virus A/Indonesia/5/05 (H5N1)); experiment: trimeric HA microarray; transfection supernatant set 3
[12] = target: recombinant homotrimeric HA, A/common magpie/Hong Kong/5052/07 H5N1 (Influenza A virus A/common magpie/Hong Kong/5052/07 (H5N1)); experiment: as above
[13] = target: recombinant homotrimeric HA, A/Anhui/1/05 H5N1 (Influenza A virus A/Anhui/1/05 (H5N1)); experiment: as above
[14] = target: recombinant homotrimeric HA, A/Egypt/3300-NAMRU3/08 H5N1 (Influenza A virus A/Egypt/3300-NAMRU3/08 (H5N1)); experiment: as above
[15] = target: recombinant homotrimeric HA, A/California/4/09 H1N1 (Influenza A virus A/California/4/09 (H1N1)); experiment: as above
[16] = target: recombinant homotrimeric HA, A/Hong Kong/1073/99 H9N2 (Influenza A virus A/Hong Kong/1073/99 (H9N2)); experiment: as above
[17] = target: recombinant homotrimeric HA, A/Vietnam/1203/04 H5N1 (Influenza A virus A/Vietnam/1203/04 (H5N1)); experiment: as above
[18] = target: recombinant homotrimeric HA, A/Japan/305/57 H2N2 (Influenza A virus A/Japan/305/57 (H2N2)); experiment: as above
[19] = target: recombinant homotrimeric HA, A/northern shoveler/California/HKWF115/07 (Influenza A virus A/northern shoveler/California/HKWF115/2007 (H6N1; Table 16 prints H6N4)); experiment: as above
[20] = target: recombinant homotrimeric HA, A/South Carolina/1/18 H1N1 (Influenza A virus A/South Carolina/1/18 (H1N1)); experiment: as above
[21] = target: T2, recombinant homotrimeric HA, A/Wisconsin/67/05 H3N2 (Influenza A virus A/Wisconsin/67/05 (H3N2)); experiment: as above
[22] = target: T1, recombinant homotrimeric HA, A/Solomon …; experiment: as above
[23] = target: recombinant homotrimeric HA, A/chicken/Vietnam/NCVD-016/08 H5N1 (Influenza A virus A/chicken/Vietnam/NCVD-016/08 (H5N1)); experiment: as above
[24] = target: recombinant soluble homotrimeric HA of A/California/4/09 (H1N1) (Influenza A virus A/California/04/2009 (H1N1)); experiment: HA microarray, BCC supernatant
[25] = target: recombinant soluble homotrimeric HA of A/Vietnam/1203/04 (H5N1) (Influenza A virus A/Vietnam/1203/2004 (H5N1)); experiment: HA microarray, BCC supernatant
[26] = target: recombinant soluble homotrimeric HA of A/Solomon Islands/3/06 (H1N1) (Influenza A virus A/Solomon Islands/3/2006 (H1N1)); experiment: HA microarray, BCC supernatant
[27] = target: recombinant soluble homotrimeric HA of A/Indonesia/5/05 (H5N1) (Influenza A virus A/Indonesia/5/2005 (H5N1)); experiment: HA microarray, BCC supernatant
[28] = target: recombinant soluble homotrimeric HA of A/northern shoveler/California/HKWF115/2007 (H6N1) (Influenza A virus A/northern shoveler/California/HKWF115/2007 (H6N1)); experiment: HA microarray, BCC supernatant
[29] = target: recombinant soluble homotrimeric HA of A/Anhui/1/05 (H5N1) (Influenza A virus A/Anhui/1/2005 (H5N1)); experiment: HA microarray, BCC supernatant
[30] = target: recombinant soluble homotrimeric HA of A/Egypt/3300-NAMRU3/08 (H5N1) (Influenza A virus A/Egypt/3300-NAMRU3/2008 (H5N1)); experiment: HA microarray, BCC supernatant
[31] = target: recombinant soluble homotrimeric HA of A/duck/Yangzhou/02/2005 (H8N4) (Influenza A virus A/duck/Yangzhou/02/2005 (H8N4)); experiment: HA microarray, BCC supernatant
[32] = target: recombinant soluble homotrimeric HA, A/Hong Kong/1073/99 (H9N2) (influenza A virus A/Hong Kong/1073/99 (H9N2)); experiment: microarray, trimeric HA, transfection supernatant
[33] = target: recombinant soluble homotrimeric HA, A/Hong Kong/2108/03 (H9N2) (influenza A virus A/Hong Kong/2108/2003 (H9N2)); experiment: microarray, trimeric HA, transfection supernatant
[34] = target: recombinant soluble homotrimeric HA, A/northern shoveler/California/HKWF115/2007 (H6N1) (influenza A virus A/northern shoveler/California/HKWF115/2007 (H6N1)); experiment: microarray, trimeric HA, transfection supernatant
[35] = target: T2, recombinant homotrimeric HA, …; experiment: trimeric HA microarray; transfection supernatant set 4

B1: TCN-554 (5277_M05) (antibody, V domains shown)
VH: QVQLVQSGADLKKPGASVKVSCKASGYTFTDYYIHWVRQAPGQGLEWMGWINPESGDTKYAQKFQGRVTMTRDTSITTAYMELGRLRSDDTAVYYCARDVSTTWSWFAPWGQGTLVTVSS
VL: DIVMTQSPDSLAVSLGERATINCRSSQSIFHNSNNENYLAWYQQKPGQPPKLLIYWASTRESGVPDRFSGSGSGTDFTLTISSLQAEDVAVYFCQQYYNAPLTFGGGTKVEIK
Trimeric HA Binding RLU [1]: 5810 RLU
Trimeric HA Binding RLU [2]: 4520 RLU
Trimeric HA Binding RLU [3]: 2710 RLU
Trimeric HA Binding: RLU [4]: 5400 RLU
Trimeric HA Binding: RLU [5]: 992 RLU
Trimeric HA Binding RLU [6]: 78 RLU
Trimeric HA Binding RLU [7]: 250 RLU
Trimeric HA Binding RLU [8]: 328 RLU
Trimeric HA Binding RLU [9]: 610 RLU
Trimeric HA Binding RLU [10]: 46500 RLU

B2: TCN-533 (5256_A17) (antibody, V domains shown)
VH: QVQLVQSGADVKKPGSSVTVSCKASGGSFSNYGINWVRQAPGQGLEWMGGIIPLINAPNYAPKFQGRVTITADMFSNIVSLQLTSLRTDDTAVYYCARRKMTTAIDYWGQGTLVTVSS
VL: QPVLSQPPSASASLGASVTLTCTLSSGFDNYQVAWYQQRPGKGPRFVMRVGNGGNVASKGDGIPDRFSVSGSGLNRYLTIKNIQEDDESDYYCGADHGSGNNFVSPYVFGGGTKLTVL
Trimeric HA Binding: RLU [11]: 28300 RLU
Trimeric HA Binding: RLU [12]: 25200 RLU
Trimeric HA Binding: RLU [13]: 301 RLU
Trimeric HA Binding: RLU [14]: 18600 RLU
Trimeric HA Binding: RLU [15]: 6880 RLU
Trimeric HA Binding: RLU [16]: 23800 RLU
Trimeric HA Binding: RLU [17]: 11700 RLU
Trimeric HA Binding: RLU [18]: 18600 RLU
Trimeric HA Binding: RLU [19]: 7810 RLU
Trimeric HA Binding: RLU [20]: 16400 RLU
Trimeric HA Binding: RLU [21]: 16100 RLU
Trimeric HA Binding: RLU [22]: 15500 RLU
Trimeric HA Binding: RLU [23]: 24600 RLU
Trimeric HA Binding RLU [24]: 29300 RLU
Trimeric HA Binding RLU [25]: 5680 RLU
Trimeric HA Binding RLU [26]: 39200 RLU
Trimeric HA Binding RLU [7]: 47700 RLU
Trimeric HA Binding RLU [8]: 10800 RLU
Trimeric HA Binding RLU [27]: 44100 RLU
Trimeric HA Binding RLU [28]: 41400 RLU
Trimeric HA Binding RLU [29]: 8060 RLU
Trimeric HA Binding RLU [30]: 34300 RLU
Trimeric HA Binding RLU [10]: 13800 RLU
Trimeric HA Binding RLU [31]: 24700 RLU

B3: TCN-534 (5249_B02) (antibody, V domains shown)
VH: QVQLVQSGAEVKKPGSSVKVSCRESGGTFNGYTITWVRQAPGQGLEWMGGIIPMMGTVNYAQKLQGRVTITTDYFTKTAYMDLNNLRSEDTAMYYCVKIRYTGQQLLWGQGTLVTVSS
VL: DIQMTQSPSTLSASIGDRVTITCRASQSIASWLAWYQQKPGKAPKLLIYEAVNLESGVPSRFSGSGSGTDFTLTISSLQPDDFATYFCQHYGTISQTFGGGTKVEIK
Trimeric HA Binding RLU [32]: 731 RLU
Trimeric HA Binding RLU [3]: 11400 RLU
Trimeric HA Binding RLU [33]: 27 RLU
Trimeric HA Binding RLU [34]: 21300 RLU
Trimeric HA Binding: RLU [35]: 897 RLU
Trimeric HA Binding RLU [24]: 30100 RLU
Trimeric HA Binding RLU [25]: 3440 RLU
Trimeric HA Binding RLU [26]: 44200 RLU
Trimeric HA Binding RLU [7]: 56600 RLU
Trimeric HA Binding RLU [8]: 50600 RLU
Trimeric HA Binding RLU [27]: 46400 RLU
Trimeric HA Binding RLU [28]: 52400 RLU
Trimeric HA Binding RLU [29]: 6860 RLU
Trimeric HA Binding RLU [30]: 41400 RLU
Trimeric HA Binding RLU [10]: 7980 RLU
Trimeric HA Binding RLU [31]: 46500 RLU
